Source: the RNAGym collection of RNA variant scans (doi:10.7554/elife.90254)

B1: LINE1-full (parent)
chain: UACGUAGGUGGUUUUCCCCUGAUAGUGCUAAGGGGGCCUGGAAGUUUGGACUGGGCAGAGCUCAACACAGCGUGGCAAAGUGGCUGUGGCUAGACUGCCUCUCUGGAUUCCUCGUCACUCAGCAGGGCAUCUCUGAGAGAAAUGCC

Variants of: B1
Assay: self-cleavage, relative activity (ratio to wild type); higher = more cleavage; in vitro, sequencing; the parent is a self-cleaving ribozyme

Row | Variant | self-cleavage
1 | C118U C145U | 0.86
2 | G8U U109C | 0.67
3 | A31U A117U | 0.95
4 | U5C A121G | 1.28
5 | C16A U115C | 0.41
6 | A2C A140G | 1.28
7 | C90U U100A | 0.04
8 | A30U A140G | 1.76
9 | A77C A121G | 1.55
10 | A79G G86U | 0.1
11 | A92U U132A | 0.69
12 | A50G A121C | 1.23
13 | A6G G125A | 0.77
14 | G35A A79U | 1.72
15 | A24G U85C | 0
16 | A67G A138U | 0.56
17 | G48U U109A | 1.42
18 | U23C G55U | 0.22
19 | U96C U143A | 0.13
20 | U115C U132C | 1.84
21 | A77G G97U | 0.08
22 | A107G U115A | 0.95
23 | G75A U109A | 0.99
24 | C131U U143G | 0.59

Row | Variant | self-cleavage
25 | A6G C17U | 0.28
26 | G4A A94U | 0.27
27 | U47C C51U | 1.14
28 | G105A A141U | 0
29 | C3U U87G | 0.32
30 | U20A U52G | 1.58
31 | U26C U45A | 0.99
32 | C18U U102C | 1.61
33 | A69G U81C | 0.54
34 | U14C C63A | 0.06
35 | U130C C133U | 1.42
36 | C19A U20C | 1.04
37 | U9C G54A | 0.65
38 | C37G U87C | 0.2
39 | A22U A107U | 1.96
40 | U85A A94G | 0.15
41 | G27U U132A | 1.23
42 | U12C U52G | 1.84
43 | U12C G75C | 0.66
44 | A136G A140G | 1.51
45 | A67C A94G | 0
46 | U115C C145A | 1.84
47 | U73A U132C | 1.53
48 | A67G A121C | 0.62

Row | Variant | self-cleavage
49 | A59U A129G | 0.86
50 | C16U U132C | 1.12
51 | U12C U132A | 1.31
52 | U29A U104A | 1.26
53 | A24G U46A | 0.9
54 | A22G U23C | 0.63
55 | G93U G127C | 0.19
56 | C110U A117G | 2.38
57 | U12G A67U | 0.23
58 | G36A U100C | 2.05
59 | U46C | 1.41
60 | U14G U52A | 1.08
61 | U20G A79G | 1.17
62 | G21A A59G | 0.04
63 | A67G A78U | 0.65
64 | G83A U130C | 1.13
65 | C51A A57G | 0.48
66 | A117G A141G | 1.71
67 | A22G U134C | 0.96
68 | G33A U115C | 1.48
69 | C68U U132C | 0.25
70 | U15C A69G | 0.47
71 | A2G G36U | 0.67
72 | A6G A78G | 1.15

Row | Variant | self-cleavage
73 | U1A U47G | 1.53
74 | C120A A129G | 1.29
75 | A79U U91C | 1.04
76 | A57C A141G | 0.11
77 | A43G U102A | 0.91
78 | U14C G70A | 0.26
79 | A43G U47A | 0.96
80 | A64U A77G | 0.75
81 | C66U A107G | 0.03
82 | G49A A142G | 0.98
83 | G33C U96A | 0.05
84 | U130C A138G | 1.75
85 | A31G U130C | 1.45
86 | C37G U130G | 0.68
87 | U47A U81C | 1.57
88 | U73C A79U | 1.65
89 | G41A G125A | 1.46
90 | G48A G72A | 0.96
91 | A57G U108C | 1.48
92 | A31G A43U | 0.89
93 | U26A U96C | 0.16
94 | U91C U100C | 0.48
95 | C18U U100C | 1.53
96 | U52G A140G | 1.81

Row | Variant | self-cleavage
97 | A79G G82U | 1.32
98 | U20A A142G | 1.08
99 | A59G G82A | 0.02
100 | A92G G126U | 0.13
101 | U39C U132A | 1.46
102 | A31C A59C | 0.61
103 | A42U A117U | 1.28
104 | A140G G144A | 0.92
105 | A79G G88U | 0.05
106 | G35U G75C | 0.77
107 | C56U U85G | 0.03
108 | U20A A117U | 1.49
109 | G72A A94U | 0.06
110 | C37U G88A | 0.04
111 | G86A U109G | 0.07
112 | A31U A138G | 1.26
113 | C37U U45C | 1.02
114 | U102C U130C | 1.24
115 | A69U U143A | 0.04
116 | G8A U91C | 0.69
117 | A79G A138C | 2.4
118 | A121C A142G | 1.1
119 | U14C G144A | 1.13
120 | U12C U102C | 1.18

Row | Variant | self-cleavage
121 | A24C A79U | 2.24
122 | A6G A92G | 0.22
123 | U20A G44U | 1.2
124 | U1A U143A | 1.04
125 | U73A A92U | 0.8
126 | C76U A107G | 2.53
127 | A22G A121U | 1
128 | U45A | 1.21
129 | U109C A129U | 1.97
130 | A30G A124U | 1.44
131 | A42U U134A | 1.09
132 | U96A C99U | 0.03
133 | U14C C28U | 0.8
134 | G89C A138G | 0.07
135 | A64G U134A | 0.24
136 | U15G U96A | 0.16
137 | A78C A121G | 2.59
138 | G60A U104C | 0.07
139 | U14C U134A | 0.84
140 | G35A U130C | 0.96
141 | U9C U15A | 0.5
142 | U96C C99U | 0.1
143 | U115C U130A | 1.78
144 | C63U U91G | 0.04

Row | Variant | self-cleavage
145 | U9C A77U | 1.19
146 | G82U A129G | 1.54
147 | G33U U87A | 0.03
148 | G70U U119A | 0.03
149 | A64G C66U | 0.08
150 | A78G G83A | 0.25
151 | U52C A67G | 0.61
152 | G35A U45A | 1.28
153 | U20A A138U | 1.19
154 | U12A U143A | 1.28
155 | A64U U143C | 0.42
156 | U130A U143C | 1.25
157 | G11C A50G | 0.71
158 | G106U U132C | 1.31
159 | A22U U96A | 0.09
160 | U26C U108A | 1.5
161 | U15C G88A | 0.06
162 | U23C G27A | 1.8
163 | U39G A129U | 1.44
164 | A65G U104C | 0.01
165 | G35A A141G | 1.39
166 | U23C A141G | 1.4
167 | U14C G49U | 1.21
